Residue numbers refer to the chain shown, from its start. Where “and” joins values, the source holds several entries; their conditions need not be identical. Identical values can stand only once.
Assays:
C3aR R340^5.42A = molecular target: T1, C3aR R340^5.42A (Homo sapiens, UniProt Q16581, R340A); assay: GloSensor-based cAMP assay, C3aR mutant R340A; type: cell-based; conditions: for cAMP response (% Forskolin): R3405.42A, single replicates
T1 construct: expressed in transfected cells; host or cells: HEK293T
T1 sequence (Q16581 1-482 R340A): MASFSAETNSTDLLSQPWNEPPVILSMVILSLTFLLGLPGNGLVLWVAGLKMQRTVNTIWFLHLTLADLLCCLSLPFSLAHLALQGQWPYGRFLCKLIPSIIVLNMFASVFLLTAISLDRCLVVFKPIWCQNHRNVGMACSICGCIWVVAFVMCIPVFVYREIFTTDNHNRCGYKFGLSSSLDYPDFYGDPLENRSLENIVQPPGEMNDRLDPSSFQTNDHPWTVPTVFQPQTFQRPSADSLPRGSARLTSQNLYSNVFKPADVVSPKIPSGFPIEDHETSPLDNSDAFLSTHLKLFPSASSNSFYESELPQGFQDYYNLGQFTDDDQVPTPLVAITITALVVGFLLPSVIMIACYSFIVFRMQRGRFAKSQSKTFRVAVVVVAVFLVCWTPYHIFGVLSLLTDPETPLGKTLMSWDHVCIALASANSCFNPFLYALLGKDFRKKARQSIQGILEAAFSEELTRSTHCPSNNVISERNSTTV
Protocol: (§1) HEK293T cells were seeded on 6-well plates (NEST) and transfected with pGlosensor™-22F plasmids (Promega) and pcDNA3.1 plasmids encoding C3aR or its mutants an with N-terminal FLAG tag. After 48 h, cells were detached with Accutase solution (Sigma-Aldrich) and washed with PBS, and resuspended in assay buffer (CO2-independent medium with 0.5 mg mL^−1D-luciferin). 100,000–200,000 cells were seeded on 96-well white bottom plates (SPL) and incubated at 37 °C for 45 min followed by 45 min incubation at room temperature. After 90 min of incubation, basal luminescence signals were recorded. In total, 25 μl of test ligand with various concentrations and 1 μM Forskolin (Sigma-Aldrich) were treated to the cells and luminescence signals were measured by Tristar 2 LB 942 multimode reader (Berthold). […] Relative luminescence unit (%) was calculated with the signal of wells treated with vehicle as 0% and the signal of wells treated with 1 μM Forskolin as 100% (DiRaddo et al, [2014]). Nonlinear regression was performed using a three-parameter logistic equation.

C3aR R161A = conditions: quoted by Referee #2; ref https://doi.org/10.1038/s41589-023-01339-w; cited from earlier work
C3aR Y393^6.51A = molecular target: T2, C3aR Y393^6.51A (Homo sapiens, UniProt Q16581, Y393A); assay: GloSensor-based cAMP assay, C3aR mutant Y393A; type: cell-based; conditions: for cAMP response (% Forskolin): Y3936.51A, single replicates
T2 construct: expressed in transfected cells; host or cells: HEK293T
T2 sequence (Q16581 1-482 Y393A): T1 sequence (Q16581 1-482 R340A) with A340R, Y393A
Protocol: as §1

C3aR R161^ECL2A = molecular target: T3, C3aR R161^ECL2A (Homo sapiens, UniProt Q16581, R161A); assay: GloSensor-based cAMP assay, C3aR mutant R161A; type: cell-based; conditions: R161ECL2A, single replicates
T3 construct: expressed in transfected cells; host or cells: HEK293T
T3 sequence (Q16581 1-482 R161A): T1 sequence (Q16581 1-482 R340A) with R161A, A340R
Protocol: as §1

C3a: anaphylatoxin C3a, natural peptide ligand of C3aR (a 77-amino acid peptide), Sigma-Aldrich
ΔpIC50 ± SE of Diff. (C3aR R340^5.42A; R340^5.42A relative to WT C3aR): -1.39 ± 0.06
IC50 (C3aR R340^5.42A; R340^5.42A, dose-response plot, read-out: IC50): 47 nM
pIC50 (Replicate) (C3aR R340^5.42A; R340^5.42A, individual replicates): 7.31 and 7.68 and 7.02 and 6.95
pIC50 ± SEM (Mean) (C3aR R340^5.42A; R340^5.42A, mean of independent experiments): 7.21
cAMP response (% Forskolin) (C3aR R340^5.42A; Log[C3a (M)] -7): 25.35 % Forskolin and 26.64 % Forskolin and 21.46 % Forskolin and 37.94 % Forskolin and 13.15 % Forskolin and 37.80 % Forskolin
cAMP response (% Forskolin) (C3aR R340^5.42A; Log[C3a (M)] -8): 77.37 % Forskolin and 75.03 % Forskolin and 71.05 % Forskolin and 86.28 % Forskolin and 86.11 % Forskolin and 85.37 % Forskolin
cAMP response (% Forskolin) (C3aR R340^5.42A; Log[C3a (M)] -9): 91.29 % Forskolin and 112.12 % Forskolin and 107.73 % Forskolin and 93.95 % Forskolin and 109.05 % Forskolin and 100.87 % Forskolin
cAMP response (% Forskolin) (C3aR R340^5.42A; Log[C3a (M)] -10): 92.00 % Forskolin and 91.42 % Forskolin and 98.18 % Forskolin and 91.19 % Forskolin and 108.32 % Forskolin and 87.99 % Forskolin
cAMP response (% Forskolin) (C3aR R340^5.42A; Log[C3a (M)] -11): 98.26 % Forskolin and 112.91 % Forskolin and 108.63 % Forskolin and 92.51 % Forskolin and 96.75 % Forskolin and 86.60 % Forskolin
cAMP response (% Forskolin) (C3aR R340^5.42A; Log[C3a (M)] -12): 94.72 % Forskolin and 95.53 % Forskolin and 102.57 % Forskolin and 99.30 % Forskolin and 100.29 % Forskolin and 108.61 % Forskolin
decrease of potency toward C3aR by R161A (C3aR R161A): ~ 1000 fold
ΔpIC50 ± SE of Diff. (C3aR Y393^6.51A; Y393^6.51A relative to WT C3aR): -1.34 ± 0.2
IC50 (C3aR Y393^6.51A; Y393^6.51A, dose-response plot, read-out: IC50): 35.3 nM
pIC50 ± SEM (Mean) (C3aR Y393^6.51A; Y393^6.51A, mean of independent experiments): 7.26
cAMP response (% Forskolin) (C3aR Y393^6.51A; Log[C3a (M)] -7): 22.11 % Forskolin and 35.95 % Forskolin and 17.03 % Forskolin and 39.16 % Forskolin and 16.00 % Forskolin and 10.74 % Forskolin
cAMP response (% Forskolin) (C3aR Y393^6.51A; Log[C3a (M)] -8): 77.53 % Forskolin and 92.37 % Forskolin and 48.78 % Forskolin and 85.94 % Forskolin and 83.42 % Forskolin and 59.04 % Forskolin
cAMP response (% Forskolin) (C3aR Y393^6.51A; Log[C3a (M)] -9): 100.98 % Forskolin and 105.20 % Forskolin and 100.01 % Forskolin and 92.90 % Forskolin and 94.02 % Forskolin and 86.75 % Forskolin
cAMP response (% Forskolin) (C3aR Y393^6.51A; Log[C3a (M)] -10): 91.84 % Forskolin and 102.66 % Forskolin and 96.87 % Forskolin and 100.10 % Forskolin and 89.56 % Forskolin and 88.42 % Forskolin
cAMP response (% Forskolin) (C3aR Y393^6.51A; Log[C3a (M)] -11): 102.78 % Forskolin and 104.06 % Forskolin and 100.84 % Forskolin and 95.25 % Forskolin and 103.11 % Forskolin and 88.56 % Forskolin
cAMP response (% Forskolin) (C3aR Y393^6.51A; Log[C3a (M)] -12): 99.54 % Forskolin and 99.47 % Forskolin and 94.11 % Forskolin and 90.18 % Forskolin and 94.48 % Forskolin and 86.37 % Forskolin
cAMP response (% Forskolin) (C3aR R161^ECL2A; Log[C3a (M)] -7): 95.22 % Forskolin and 113.23 % Forskolin and 84.95 % Forskolin
cAMP response (% Forskolin) (C3aR R161^ECL2A; Log[C3a (M)] -8): 93.59 % Forskolin and 100.34 % Forskolin and 90.06 % Forskolin
cAMP response (% Forskolin) (C3aR R161^ECL2A; Log[C3a (M)] -9): 101.94 % Forskolin and 107.61 % Forskolin and 95.04 % Forskolin
cAMP response (% Forskolin) (C3aR R161^ECL2A; Log[C3a (M)] -10): 94.48 % Forskolin and 102.25 % Forskolin and 94.73 % Forskolin
cAMP response (% Forskolin) (C3aR R161^ECL2A; Log[C3a (M)] -11): 103.03 % Forskolin and 121.75 % Forskolin and 96.66 % Forskolin
cAMP response (% Forskolin) (C3aR R161^ECL2A; Log[C3a (M)] -12): 95.52 % Forskolin and 105.32 % Forskolin and 102.35 % Forskolin
